Earlier results on one molecule are cited in PMC5487681, “Identification of Antifungal H^+-ATPase Inhibitors with Effect on Plasma Membrane Potential” (Antimicrobial Agents and Chemotherapy, 2017).

The test system of the data set is C. albicans cells. More on the design: method as in PMID 27139463.

B1: lactoferrin: immunoprotein that inhibits Pma1 (protein, UniProt P02788 20-710, looked up)
Lactotransferrin: GRRRSVQWCAVSQPEATKCFQWQRNMRKVRGPPVSCIKRDSPIQCIQAIAENRADAVTLDGGFIYEAGLAPYKLRPVAAEVYGTERQPRTHYYAVAVVKKGGSFQLNELQGLKSCHTGLRRTAGWNVPIGTLRPFLNWTGPPEPIEAAVARFFSASCVPGADKGQFPNLCRLCAGTGENKCAFSSQEPYFSYSGAFKCLRDGAGDVAFIRESTVFEDLSDEAERDEYELLCPDNTRKPVDKFKDCHLARVPSHAVVARSVNGKEDAIWNLLRQAQEKFGKDKSPKFQLFGSPSGQKDLLFKDSAIGFSRVPPRIDSGLYLGSGYFTAIQNLRKSEEEVAARRARVVWCAVGEQELRKCNQWSGLSEGSVTCSSASTTEDCIALVLKGEADAMSLDGGYVYTAGKCGLVPVLAENYKSQQSSDPDPNCVDRPVEGYLAVAVVRRSDTSLTWNSVKGKKSCHTAVDRTAGWNIPMGLLFNQTGSCKFDEYFSQSCAPGSDPRSNLCALCIGDEQGENKCVPNSNERYYGYTGAFRCLAENAGDVAFVKDVTVLQNTDGNNNEAWAKDLKLADFALLCLDGKRKPVTEARSCHLAMAPNHAVVSRMDKVERLKQVLLHQQAKFGRNGSDCPDKFCLFQSETKNLLFNDNTECLARLHGKTTYEKYLGPQYVAGITNLKKCSTSPLLEACEFLRK
B1: the “Increase in iATP levels, C. albicans” value is given as above 600%.
